Measured values: paper PMC11417181
Values belong to the binder of their own block, whether it stands above or below them.

Assays:
Details in all cases: remark: other sources report otherwise
[1] = biological target: T1, complement factor H, native glycosylated, full-length, purified from human plasma (human), P08603; assay: SPR; Biacore X100, biotinylated glycosylated CFH on a streptavidin chip (781 RU), CFH preparations flowed at 0.01 to 1.8 μM, Hepes buffer, single-cycle, 1:1 steady-state affinity fit
T1 chain: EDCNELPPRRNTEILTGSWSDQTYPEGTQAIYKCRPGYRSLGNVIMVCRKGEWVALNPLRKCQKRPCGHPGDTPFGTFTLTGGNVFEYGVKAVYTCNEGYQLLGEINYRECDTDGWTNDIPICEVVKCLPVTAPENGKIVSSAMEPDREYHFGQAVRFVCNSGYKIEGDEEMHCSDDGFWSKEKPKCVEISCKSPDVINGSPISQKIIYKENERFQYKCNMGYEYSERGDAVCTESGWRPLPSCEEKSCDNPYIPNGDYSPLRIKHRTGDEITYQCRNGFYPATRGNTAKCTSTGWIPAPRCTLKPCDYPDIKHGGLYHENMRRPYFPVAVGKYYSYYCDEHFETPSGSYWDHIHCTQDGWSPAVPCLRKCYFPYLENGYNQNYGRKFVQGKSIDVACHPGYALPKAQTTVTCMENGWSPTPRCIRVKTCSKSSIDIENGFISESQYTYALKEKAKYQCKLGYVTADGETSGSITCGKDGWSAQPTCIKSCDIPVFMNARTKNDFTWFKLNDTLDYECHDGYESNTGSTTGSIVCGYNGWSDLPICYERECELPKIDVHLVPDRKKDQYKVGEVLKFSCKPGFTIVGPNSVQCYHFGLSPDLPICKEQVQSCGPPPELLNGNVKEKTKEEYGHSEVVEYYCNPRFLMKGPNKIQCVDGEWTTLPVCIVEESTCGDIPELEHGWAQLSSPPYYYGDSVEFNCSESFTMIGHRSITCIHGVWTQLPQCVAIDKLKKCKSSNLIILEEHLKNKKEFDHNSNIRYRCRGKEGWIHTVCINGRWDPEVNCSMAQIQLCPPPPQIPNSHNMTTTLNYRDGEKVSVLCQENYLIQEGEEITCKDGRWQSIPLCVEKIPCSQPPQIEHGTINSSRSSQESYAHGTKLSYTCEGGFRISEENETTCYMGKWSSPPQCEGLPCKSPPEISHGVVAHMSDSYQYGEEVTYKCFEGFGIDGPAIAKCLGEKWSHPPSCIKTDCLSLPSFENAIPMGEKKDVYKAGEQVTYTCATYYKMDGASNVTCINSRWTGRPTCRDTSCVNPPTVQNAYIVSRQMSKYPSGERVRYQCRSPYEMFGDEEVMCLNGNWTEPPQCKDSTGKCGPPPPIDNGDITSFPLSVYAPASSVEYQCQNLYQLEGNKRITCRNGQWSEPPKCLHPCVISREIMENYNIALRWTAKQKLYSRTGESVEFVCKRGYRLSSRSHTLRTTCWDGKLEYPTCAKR

[2] = biological target: T1, complement factor H, native …; assay: AUC; sedimentation velocity of full-length CFH, 20 °C, 40,000 rpm, Hepes buffer, 0.2 to 1.8 mg/ml, c(s) analysis in SEDFIT, proportions from peak integration; monomer to dimer
[3] = biological target: T2, partially deglycosylated complement factor H (100 h PNGase F) (human), P08603; assay: as above
T2 chain: T1 chain

[4] = biological target: T3, fully deglycosylated complement factor H (200 h PNGase F) (human), P08603; assay: as above
T3 chain: T1 chain

Kd [1]: 1.6 µM
proportion of dimer [2]: 4%
stoichiometry N [2]: 2
B1: complement factor H, native glycosylated, full-length, purified from human plasma, P08603 19-1231 (natural protein)
chain: T1 chain
modifications: here or on the partner: eight N-linked biantennary complex-type glycans, among them those at Asn1011 (SCR-17) and Asn1077 (SCR-18); eight N-linked biantennary complex-type glycans, among them those at Asn1011 (SCR-17) and Asn1077 (SCR-18)

proportion of dimer [3]: 15%
stoichiometry N [3]: 2
B2: partially deglycosylated complement factor H (100 h PNGase F), P08603 19-1231 (natural protein)
chain: T1 chain
modifications: here or on the partner: N-linked glycans partly removed with PNGase F: forms with three to six glycan chains were present; N-linked glycans partly removed with PNGase F: forms with three to six glycan chains were present

Kd [1]: 11.5 µM
proportion of dimer [4]: 16%
stoichiometry N [4]: 2
B3: fully deglycosylated complement factor H (200 h PNGase F), P08603 19-1231 (natural protein)
chain: T1 chain
modifications: here or on the partner: N-linked glycans removed with PNGase F: eight, seven, six or five removed, leaving none, one, two or three glycans; eight N-linked biantennary complex-type glycans, among them those at Asn1011 (SCR-17) and Asn1077 (SCR-18)
